A value given as a limit tells only on which side of the number the result lay.

These results are taken from patent publication US20190330346A1 (REMD BIOTHERAPEUTICS, published 2019).

One assay concerns the target T1, murine PD-1 (murine, UniProt Q02242 25-167, limits assumed).
T1 construct: also called mouse PD-1
T1 sequence (looked up): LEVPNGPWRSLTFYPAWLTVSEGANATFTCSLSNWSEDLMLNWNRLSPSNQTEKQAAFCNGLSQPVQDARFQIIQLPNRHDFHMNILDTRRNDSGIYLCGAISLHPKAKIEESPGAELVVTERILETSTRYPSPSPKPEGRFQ
Description: murine PD-1 binding ELISA.

In assay [1] the target is T2, His-tagged human PD-1 protein (human, UniProt Q15116 25-170, limits assumed).
T2 construct: SPR analyte; also called his-tagged antigen PD-1; not shown: His tag
T2 sequence (Q15116 25-170 limits assumed): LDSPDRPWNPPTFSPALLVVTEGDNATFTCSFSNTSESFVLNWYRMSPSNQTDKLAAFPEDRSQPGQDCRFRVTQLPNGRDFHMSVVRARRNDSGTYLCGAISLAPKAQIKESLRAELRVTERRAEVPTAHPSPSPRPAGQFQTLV
Description: SPR (Biacore T200); antibody captured by anti-human Fc gamma, His-tagged human PD-1 as analyte. As for the experimental part:
Using the HCVR sequence and LCVR sequence of mAb PD1#3, a murine-human chimeric Fab (hereinafter “chimeric IgG”) was prepared which comprised the heavy chain sequence set forth in SEQ ID NO: 32 and the light chain sequence set forth in SEQ ID NO: 34. The heavy chain and light chain of the chimeric IgG are encoded by the nucleic acids set forth in SEQ ID NOs: 33 and 35, respectively. Nucleic acids encded by SEQ ID NO: 33 and SEQ ID NO: 35 which include a leader sequence were amplified and inserted into pTT5 to make an expression plasmid of the full-length IgG. The heavy chain and light chain expression plasmids were used to co-transfect 100 mL HEK293-6E cells. The recombinant IgG secreted into to media was purified using protein A affinity. The purified IgG migrated as ˜170 kDa band in SDS-PAGE under non-reducing conditions, ˜55 kDa and ˜30 kDA bands under reducing condition. The purity of the chimeric IgG is >90%, and the yield form the 100 mL culture was 0.46 mg. The binding affinity between the chimeric IgG and PD1/Fc fusion protein was determined using a Surface Plasmon Resonance (SPR) biosensor, Biacore T200 (GE Healthcare). PD1#3 was immobilized on the sensor chip pre-coated with anti-human Fc gamma. His-tagged human PD-1 protein was used as analyte.

The target in assay [2] is T2, His-tagged human PD-1 protein. Description: SPR (Biacore T200); IgG captured by anti-human Fc gamma, His-tagged human PD-1 as analyte, 1:1 model. As for the experimental part:
The binding affinity of the purified IgGs to human PD-1 protein were determined using a Surface Plasmon Resonance (SPR) biosensor, Biacore T200 (GE Healthcare). Antibodies were captured on the sensor chip pre-coated with anti-human Fc gamma. His-tagged human PD-1 protein was used as analyte. The data of dissociation (kd) and association (kₐ) rate constants were obtained using Biacore T200 evaluation software. The equilibrium dissociation constants (KD) were calculated from the ratio of kd over kₐ. Binding data for each antibody was processed and fitted to 1:1 interaction model using Biacore T200 evaluation software. All experimental data could be well fitted to the model.

Assay [3] has the same target. Nature of the assay: SPR; Fab-SASA captured on immobilised BSA, his-tagged PD-1 as analyte. As for the experimental part:
For affinity ranking, BSA was immobilized onto the sensor chip using amine coupling method. The selected Fab-SASA secreted to the culture medium was injected and captured by BSA through the tight binding between BSA and SASA (capture phase). After equilibration, his-tagged antigen PD-1 was injected for 300 seconds (association phase) followed by the injection of running buffer for 900 seconds (dissociation phase). The surface was regenerated before the injection of another three Fab-SASA clones. The process was repeated until all selected Fab-SASA proteins were analyzed. Responses of reference flow cell were subtracted from those of Fab-SASA flow cells during each cycle. The antibodies were ranked by their dissociation rate constants (off-rates, […]). […]

Assay [4] deals with T3, human PD-1 (human, UniProt Q15116 25-167).
T3 construct: The immunogen was PD1/Fc (Leu25-Gln167 fused to human IgG1 Pro100-Lys330); also called huPD-1; hPD-1
T3 sequence (Q15116 25-167 limits assumed): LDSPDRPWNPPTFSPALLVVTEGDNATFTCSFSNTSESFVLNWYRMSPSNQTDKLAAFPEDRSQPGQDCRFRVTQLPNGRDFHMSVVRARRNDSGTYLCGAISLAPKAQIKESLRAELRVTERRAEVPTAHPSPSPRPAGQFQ
Description: SPR, multiple-cycle, crude Fab from E. coli; antigen form not stated. The source says: (§1) A homology model of mouse anti-PD1 Fv was built wherein putative back mutation sites (i.e., buried residues of the frameworks that are different in the mouse and human acceptor sequences) were identified. There were a total of 14 putative back mutation sites. A variant humanized Fab comprising all 14 of the putative back mutation sites of PD1-grafted Ab mutated back to their mouse counterparts (hereinafter identified as “PD1-BM Ab”) comprising the heavy chain variable region sequence set forth in SEQ ID NO: 38 and the light chain variable region sequence set forth in SEQ ID NO: 39, was synthesized. In addition, 14 variants of PD1-BM Ab (hereinafter identified as Fabs 1-14), each having at least one of the putative 14 back mutation sites in PD1-BM Ab mutated back to the human counterpart, were synthesized. These constructs were used to transform E. coli TG1 strain. Single colonies were pick for each individual construct and grown in E. coli medium. Crude chimeric and humanized Fabs were collected and subjected to multiple-cycle affinity estimation by Surface Plasmon Resonance (SPR).

Assay [5] concerns the target T3, human PD-1. Description: SPR, multiple-cycle, crude Fab from E. coli.
From the text: as §1

In assay [6] the target is T3, human PD-1. Description: SPR; antigen form not stated.
Assay [7] addresses T3, human PD-1. Nature of the assay: SPR, multiple-cycle, crude Fab from E. coli; antigen form not stated; footnote: *out of the detection limit.
From the text: as §1

B1: PD1#1 (antibody, V domains shown)
VH: QVQLQQPGAELVMPGASVKMSCKASGYTITDCWMHWVKQRPGQGLEWIGAIDTSNSYTTYNQKFKGKATLTVDESSSTAYMQFNSLTSDDSAVYFCAISLQRPFDYWGQGTTLTVSS
VL: DIQMTQSPASLSASVGENVTITCRASENVYSYLAWYQQKEGKSPQLLVYNAKTLTGGVPSRFSGSGSGTQFSLRISSLQPEDFGSYYCLQHYGYPFTFGSGTKLEKK
notes: Murine hybridoma mAb purified on Protein A; also called mAb PD1#1
As for B1, the binding result in the assay with murine PD-1 is “no binding”.

B2: PD1#4 (antibody, V domains shown)
VH: EVRLVESGGGLVKPGGSLKVSCVASGFTFSRYGMSWVRQTPEKRLEWVATISGGGRDTYYPDSVKGRFTISRDNAKNNLYLQMSSLRSEDTALYYCVRQEDIVWFAYWGQGTLVTVSA
VL: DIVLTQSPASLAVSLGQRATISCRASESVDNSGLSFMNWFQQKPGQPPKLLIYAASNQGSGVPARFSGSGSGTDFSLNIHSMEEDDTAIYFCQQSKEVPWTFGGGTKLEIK
notes: Murine hybridoma mAb purified on Protein A; also called mAb PD1#4
B2: in the assay with murine PD-1, the binding result was “no binding”.

B3: chimeric IgG (antibody, V domains shown)
VH: EVQLVESGGDLVKPGGSLKLSCAASGFVFSRYDMAWVRQTPEKRLEWVAFISGGGSNTYYPDTVKGRFTISRDNAKNTLYLQMTSLKSEDTAVYYCISPYYYAMEYWGQGTSVTVSS
VL: DIVMTQSHKFISTSVGDRVSITCKASQDVDTAVAWYQQKPGQSPKLLIHWASTRHTGVPDRFTGGGSGTDFTLTLSNVQSEDLADYFCQQYSTFPWTFGGGTRLEIKR
notes: Full-length IgG from HEK293-6E cells; also called murine-human chimeric antibody derived from PD1#3
In assay [1], B3 had a dissociation constant (Kd) of 480 pM. In assay [2], this molecule yielded a Kd of 487 pM, a dissociation rate constant (koff) of 0.000129 s⁻¹ and an on-rate (kon) of 265000 M⁻¹ s⁻¹.

B4: PD1#3 (antibody, V domains shown)
VH: EVQLVESGGDLVKPGGSLKLSCAASGFVFSRYDMAWVRQTPEKRLEWVAFISGGGSNTYYPDTVKGRFTISRDNAKNTLYLQMTSLKSEDTAVYYCISPYYYAMEYWGQGTSVTVSS
VL: DIVMTQSHKFISTSVGDRVSITCKASQDVDTAVAWYQQKPGQSPKLLIHWASTRHTGVPDRFTGGGSGTDFTLTLSNVQSEDLADYFCQQYSTFPWTFGGGTRLEIK
notes: Murine hybridoma mAb purified on Protein A; also called mAb PD1#3
With B4, the binding result with murine PD-1 is recorded as “no binding”.

B5: AS05618 (Fab, V domains shown)
VH: EVQLVESGGGLVQPGGSLRLSCAASGFVFSRYDMAWVRQTPGKGLEWVSFISGGGSNTYYPDTVKGRFTISRDNSKNTLYLQMNSLRAEDTAVYYCISPYYYAMEYWGQGTTVTVSS
VL: DIQMTQSPSSISTSVGDRVTITCKASQDVDTAVAWYQQKPGKSPKLLIHWASTRHTGVPSRFSGSGSGTDFTLTISSLQPEDFADYFCQQYSTFPWTFGGGTKLEIK
notes: Humanized Fab-SASA clone from the phage library
In the case of B5, in assay [3], binding was characterised by a dissociation constant (Kd) of 410 pM, the koff was found to be 0.000151 s⁻¹ and the kon was 369000 M⁻¹ s⁻¹.

B6: AS05617 (IgG) (antibody, V domains shown)
VH: EVQLVESGGGLVQPGGSLRLSCAASGFVFSRYDMAWVRQTPGKGLEWVSFISGGGSNTYYPDTVKGRFTISRDNSKNTLYLQMNSLRAEDTAVYYCISPYYYAMEYWGQGTTVTVSS
VL: DIQMTQSPSSISTSVGDRVTITCKASQDVDTAVAWYQQKPGKSPKLLIYWASTRHTGVPSRFSGSGSGTDFTLTISSLQPEDFADYFCQQYSTFPWTFGGGTKVEIKR
notes: Full-length humanized IgG from HEK293 cells
In assay [2], B6 yielded a Kd of 1000 pM, a dissociation rate constant (koff) of 0.000183 s⁻¹ and an on-rate constant (kon) of 183000 M⁻¹ s⁻¹.

B7: PD1-BM Ab (Fab) (Fab, V domains shown)
VH: EVQLVESGGGLVQPGGSLRLSCAASGFVFSRYDMAWVRQTPGKGLEWVAFISGGGSNTYYPDTVKGRFTISRDNSKNTLYLQMNSLRAEDTAVYYCISPYYYAMEYWGQGTTVTVSS
VL: DIQMTQSPSSISTSVGDRVTITCKASQDVDTAVAWYQQKPGKSPKLLIHWASTRHTGVPSRFSGSGSGTDFTLTLSSVQPEDLADYFCQQYSTFPWTFGGGTKLEIK
notes: Humanized Fab with all 14 back mutations; also called PD1-BM Fab
For the molecule B7, in the assay with human PD-1 [4], the Kd turned out to be 150 pM, the koff came out at 5.5e-05 s⁻¹ and the association rate constant (kon) was 360000 M⁻¹ s⁻¹. In assay [3], this molecule showed a Kd of 56.4 pM, a koff of 1.78e-05 s⁻¹ and an association rate constant (kon) of 315000 M⁻¹ s⁻¹.

B8: Fab 4 (Fab, V domains shown)
VH: EVQLVESGGGLVQPGGSLRLSCAASGFVFSRYDMAWVRQTPGKGLEWVAFISGGGSNTYYPDTVKGRFTISRDNSKNTLYLQMNSLRAEDTAVYYCIKPYYYAMEYWGQGTTVTVSS
VL: DIQMTQSPSSISTSVGDRVTITCKASQDVDTAVAWYQQKPGKSPKLLIHWASTRHTGVPSRFSGSGSGTDFTLTLSSVQPEDLADYFCQQYSTFPWTFGGGTKLEIK
notes: Crude Fab from E. coli; also called PD1-BM VH-S98K
As for B8, the binding result with human PD-1 [5] is recorded as “no binding”.

B9: PD1-BM-min Ab (Fab) (Fab, V domains shown)
VH: EVQLVESGGGLVQPGGSLRLSCAASGFVFSRYDMAWVRQAPGKGLEWVSFISGGGSNTYYPDTVKGRFTISRDNSKNTLYLQMNSLRAEDTAVYYCISPYYYAMEYWGQGTTVTVSS
VL: DIQMTQSPSSVSASVGDRVTITCKASQDVDTAVAWYQQKPGKAPKLLIYWASTRHTGVPSRFSGSGSGTDFTLTISSLQPEDFATYYCQQYSTFPWTFGGGTKVEIK
notes: Humanized Fab with only the VH A97I and K98S back mutations; also called PD1-Grafted VH-A97I & K98S
In the assay with human PD-1 [6], B9 registered a Kd of 253 pM, a koff of 8.4e-05 s⁻¹ and a kon of 332000 M⁻¹ s⁻¹.

B10: Fab 2 (Fab, V domains shown)
VH: EVQLVESGGGLVQPGGSLRLSCAASGFVFSRYDMAWVRQTPGKGLEWVSFISGGGSNTYYPDTVKGRFTISRDNSKNTLYLQMNSLRAEDTAVYYCISPYYYAMEYWGQGTTVTVSS
VL: DIQMTQSPSSISTSVGDRVTITCKASQDVDTAVAWYQQKPGKSPKLLIHWASTRHTGVPSRFSGSGSGTDFTLTLSSVQPEDLADYFCQQYSTFPWTFGGGTKLEIK
notes: Crude Fab from E. coli; also called PD1-BM VH-A49S
Consider B10, for which the kon with human PD-1 [4] is 320000 M⁻¹ s⁻¹. In the assay with human PD-1 [7], this molecule registered a dissociation constant (Kd) of no more than 25 pM and a koff of less than 8.1e-06 s⁻¹.

B11: PD1-BM-min (IgG) (antibody, V domains shown)
VH: EVQLVESGGGLVQPGGSLRLSCAASGFVFSRYDMAWVRQAPGKGLEWVSFISGGGSNTYYPDTVKGRFTISRDNSKNTLYLQMNSLRAEDTAVYYCISPYYYAMEYWGQGTTVTVSS
VL: DIQMTQSPSSVSASVGDRVTITCKASQDVDTAVAWYQQKPGKAPKLLIYWASTRHTGVPSRFSGSGSGTDFTLTISSLQPEDFATYYCQQYSTFPWTFGGGTKVEIKR
notes: as for B6
Consider B11, for which, in assay [2], the equilibrium dissociation constant (Kd) came to 943 pM, the koff amounted to 0.000263 s⁻¹ and the on-rate (kon) is 279000 M⁻¹ s⁻¹.

B12: PD1-BM Ab (IgG) (antibody, V domains shown)
VH: EVQLVESGGGLVQPGGSLRLSCAASGFVFSRYDMAWVRQTPGKGLEWVAFISGGGSNTYYPDTVKGRFTISRDNSKNTLYLQMNSLRAEDTAVYYCISPYYYAMEYWGQGTTVTVSS
VL: DIQMTQSPSSISTSVGDRVTITCKASQDVDTAVAWYQQKPGKSPKLLIHWASTRHTGVPSRFSGSGSGTDFTLTLSSVQPEDLADYFCQQYSTFPWTFGGGTKLEIKR
notes: as for B6
B12: in assay [2], the Kd worked out at 579 pM, the koff turned out to be 0.000139 s⁻¹ and the kon was determined as 241000 M⁻¹ s⁻¹.
